Test [1] concerns CA125 specific mouse T-cells. Description: Proliferation of CA125 specific T-cells with stimulated peritoneal macrophages ([3H]-thymidine uptake). The note with it: macrophages stimulated with agent, presented to CA125 specific mouse T-cells; 1 μug/ml of the antibody and 100 Units/ml CA125; mean of three experiments. Format: cell-based. An excerpt: Enhanced antigen-presentation of antigen-antibody complexes was attributed to facilitated antigen uptake via the Fcγ-receptor (macrophages, dendritic cells) or membrane-bound Ig (B cells) on professional antigen-presenting cells (APC). […] Accordingly, various professional APC can be involved in the preferential presentation of the CA125-MAb-B43.13 complex. We tested B cells with two different specificities as well as macrophages as APC: CA125-specific B cells (from mice immunized with CA125) and anti-MAb-B43.13-specific B cells (from mice immunized with MAb-B43.13). Normal B cells served as control. […] Enhanced presentation of immune complexes by macrophages and dendritic cells is mediated by preferential uptake via the FcγR. FIG. 4 confirms that CA125 is presented more efficiently by macrophages, if complexed with an antigen specific antibody.
Better cellular immune response was observed when the UV exposed antibody was presented in association with the antigen to T-cells. Thus, macrophages isolated from mouse peritoneal cavities were stimulated with native B43.13 or UV exposed B43.13 in association with CA125 and presented to CA125 specific mouse T-cells isolated from mice injected with CA125. Control experiments included stimulation of the macrophages without the antigen. […]

In test [2] the target is T1, CA125 (Homo sapiens, UniProt Q8WXI7). Description: Inhibition of binding of patients' anti-CA125 antibodies to CA125 (solid phase); classification Ab3/Ab1c. The note with it: inhibitor at 10500 U/ml. The method, then: Anti-CA 125 positive samples were tested for inhibition of their binding to CA 125 (solid phase) by CA 125, MAb-B43.13 scFv, MAb-B27.1 F(ab′), or MAb M11 F(ab′). Single chain MAb-B43.13, F(ab′) MAb-B27.1, and F(ab′) M11 were used in the inhibition studies to avoid non-specific inhibition of the Fc portion of the antibody and cross-reactivity due to HAMA. To be considered to be significant, inhibition had to be at least 15%.
Thus, if the patients serum contained anti-CA125 antibodies that were inhibitable by MAb-B43.13 only, it was classified as containing Ab3; those inhibitable by MAb-B27.1 were classified as Ab1c. In other words, injecting a binding agent such as an antibody against a single epitope on a multi-epitopic antigen leads to generation of a humoral and cellular response against a different epitope on the antigen.
Method: 86 ovarian cancer patients with active disease were tested for the presence of antibodies against CA125. None of the patients had antibodies against CA125 before injection of MAb-B43.13. The patients were injected with 2 mg of MAb-B43.13 at varying time intervals (e.g., see Table 5 for some of the patients). Sera from these patients were analyzed for the presence of human anti-CA125 antibodies by their ability to bind to the CA125 [R. Madiyalakan et al, Hybridoma, 14:199-203 1995)]. […]

Test [3] addresses T1, CA125. Description: in vitro studies, method not stated.
For another test, the system named is FcγR. The note with it: complexed with anti-tetanus toxoid IgG; measured by TH cell activation; cited from earlier work.

In the case of “CA125: soluble multi-epitopic tumor associated antigen of epithelial ovarian cancers”, in test [1], the “STIMULATION INDEX” value is 2.76. In addition, the “Inhibition, No. of Positives/Total” value with CA125 [2] (anti-CA125 positive samples of patients injected with MAb-B43.13, positive = inhibition at least 15%) is reported as 26/28. Besides, the “Inhibition, positives (%)” value in the test with CA125 [2] (anti-CA125 positive samples) is “(92.8) %”.
MAb-B43.13 (antibody): the binding capacity (units of CA 125 per 1 ng of MAb-B43.13) with CA125 [3] was found to be 10.
Turning to tetanus toxoid, in the test on FcγR, the “increase in processing and presentation of the antigen” value is given as 10-1000 -fold.
